For five molecules, binding result and Kd results are on record in PMC4010901 (The Journal of Experimental Medicine, 2014).

Test [1] addresses T1, recombinant hRGMb-HIS (R&D Systems) (human, UniProt Q6NW40 46-413).
T1 sequence (looked up): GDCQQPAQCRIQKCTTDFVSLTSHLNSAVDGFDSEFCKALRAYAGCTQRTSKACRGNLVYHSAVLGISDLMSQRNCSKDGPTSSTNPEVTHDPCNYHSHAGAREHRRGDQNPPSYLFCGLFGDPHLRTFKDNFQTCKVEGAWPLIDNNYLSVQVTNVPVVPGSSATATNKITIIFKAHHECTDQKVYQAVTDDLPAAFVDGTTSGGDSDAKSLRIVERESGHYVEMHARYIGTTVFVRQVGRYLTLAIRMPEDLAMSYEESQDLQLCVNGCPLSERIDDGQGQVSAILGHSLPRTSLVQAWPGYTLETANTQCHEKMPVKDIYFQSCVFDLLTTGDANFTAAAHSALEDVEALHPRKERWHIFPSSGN
Nature of the test: ELISA. (In an ELISA, binding on a coated surface is turned into a signal by an enzyme label.)

In test [2] the target is T2, recombinant mRGMb-HIS (R&D Systems) (mouse, UniProt Q7TQ33 49-415).
T2 sequence (looked up): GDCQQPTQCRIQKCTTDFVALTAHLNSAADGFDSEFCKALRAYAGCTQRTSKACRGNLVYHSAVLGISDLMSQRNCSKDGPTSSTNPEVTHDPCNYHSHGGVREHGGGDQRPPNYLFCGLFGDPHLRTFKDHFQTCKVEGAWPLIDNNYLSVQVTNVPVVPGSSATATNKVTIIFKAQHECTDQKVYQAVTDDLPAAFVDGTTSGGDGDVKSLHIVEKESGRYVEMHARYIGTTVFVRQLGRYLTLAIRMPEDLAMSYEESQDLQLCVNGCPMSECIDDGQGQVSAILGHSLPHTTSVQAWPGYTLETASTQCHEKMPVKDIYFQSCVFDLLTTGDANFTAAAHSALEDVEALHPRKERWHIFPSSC
Kind of test: ELISA.

Test [3] concerns the target T2, recombinant mRGMb-HIS (R&D Systems). Kind of test: ELISA. This is another data set of the same source.
The target is the same in test [4]. Kind of test: ELISA. The source holds these as a separate data set.
In test [5] the target is T1, recombinant hRGMb-HIS (R&D Systems). Kind of test: ELISA. This is another data set of the same source.
The target in test [6] is T3, RGMb (R&D Systems) immobilised for Biacore ( (mouse and human RGMb-HIS …, UniProt Q7TQ33 49-415)).
T3 sequence (looked up): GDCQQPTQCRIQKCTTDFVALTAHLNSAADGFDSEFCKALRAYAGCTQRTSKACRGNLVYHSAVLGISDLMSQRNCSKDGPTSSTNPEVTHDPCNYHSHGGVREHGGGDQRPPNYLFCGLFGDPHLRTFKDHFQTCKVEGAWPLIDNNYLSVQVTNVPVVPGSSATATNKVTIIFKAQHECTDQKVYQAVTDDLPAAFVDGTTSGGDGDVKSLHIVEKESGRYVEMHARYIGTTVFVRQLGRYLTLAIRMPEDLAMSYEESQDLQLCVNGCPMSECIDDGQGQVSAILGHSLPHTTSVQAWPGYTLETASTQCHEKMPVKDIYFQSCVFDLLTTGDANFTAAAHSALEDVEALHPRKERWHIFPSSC
Kind of test: SPR. (Surface plasmon resonance follows binding to a sensor surface in real time, without labels.)

Like-named read-outs stand apart in the source and are kept apart here.

B1: hPD-L2-mIgG2a fusion protein (Fc fusion, human, UniProt Q9BQ51 20-220, looked up)
chain: LFTVTVPKELYIIEHGSNVTLECNFDTGSHVNLGAITASLQKVENDTSPHRERATLLEEQLPLGKASFHIPQVQVRDEGQYQCIIIYGVAWDYKYLTLKVKASYRKINTHILKVPETDEVELTCQATGYPLAEVSWPNVSVPANTSHSRTPEGLYQVTSVLRLKPPPGRNFSCVFWNTHVRELTLASIDLQSQMEPRTHPT
Consider B1, for which the binding result in test [1] and in test [2] was “binds” in each case.

B2: recombinant mouse BMP-2 (Invitrogen) (ligand, UniProt P21274 281-394, looked up)
chain: QAKHKQRKRLKSSCKRHPLYVDFSDVGWNDWIVAPPGYHAFYCHGECPFPLADHLNSTNHAIVQTLVNSVNSKIPKACCVPTELSAISMLYLDENEKVVLKNYQDMVVEGCGCR
As to B2, the binding result in test [3] was “binds”.

B3: recombinant mouse BMP-4 (R&D Systems) (ligand, UniProt P21275 293-408, looked up)
chain: SPKHHPQRSRKKNKNCRRHSLYVDFSDVGWNDWIVAPPGYQAFYCHGDCPFPLADHLNSTNHAIVQTLVNSVNSSIPKACCVPTELSAISMLYLDEYDKVVLKNYQEMVVEGCGCR
Regarding B3, the binding result in test [4] is given as “binds”.

B4: mPD-L2-hIgG1/IgA fusion protein (Fc fusion, mouse, UniProt Q9WUL5 20-221, looked up)
chain: LFTVTAPKEVYTVDVGSSVSLECDFDRRECTELEGIRASLQKVENDTSLQSERATLLEEQLPLGKALFHIPSVQVRDSGQYRCLVICGAAWDYKYLTVKVKASYMRIDTRILEVPGTGEVQLTCQARGYPLAEVSWQNVSVPANTSHIRTPEGLYQVTSVLRLKPQPSRNFSCMFWNAHMKELTSAIIDPLSRMEPKVPRTW
With B4, the binding result in test [5] is “binds”.

B5: mPD-L2-hIgG (R&D Systems) (Fc fusion, mouse, UniProt Q9WUL5 20-221, looked up)
chain: LFTVTAPKEVYTVDVGSSVSLECDFDRRECTELEGIRASLQKVENDTSLQSERATLLEEQLPLGKALFHIPSVQVRDSGQYRCLVICGAAWDYKYLTVKVKASYMRIDTRILEVPGTGEVQLTCQARGYPLAEVSWQNVSVPANTSHIRTPEGLYQVTSVLRLKPQPSRNFSCMFWNAHMKELTSAIIDPLSRMEPKVPRTW
As usually defined, the Kd is the concentration at which binding is half-saturated. For the molecule B5, in test [6], binding was characterised by a dissociation constant (Kd) of 48.5 nM.
